Legend:
[1] = target: α-tubulin (human (endogenous in VTC-037 GSCs)) (UniProt P68363); assay: cellular thermal shift assay
[2] = target: β-tubulin (human (endogenous in VTC-001 and VTC-037 GSCs)) (UniProt P07437); assay: cellular thermal shift assay

Chain of α-tubulin (human (endogenous in VTC-037 GSCs)) (P68363 whole entry): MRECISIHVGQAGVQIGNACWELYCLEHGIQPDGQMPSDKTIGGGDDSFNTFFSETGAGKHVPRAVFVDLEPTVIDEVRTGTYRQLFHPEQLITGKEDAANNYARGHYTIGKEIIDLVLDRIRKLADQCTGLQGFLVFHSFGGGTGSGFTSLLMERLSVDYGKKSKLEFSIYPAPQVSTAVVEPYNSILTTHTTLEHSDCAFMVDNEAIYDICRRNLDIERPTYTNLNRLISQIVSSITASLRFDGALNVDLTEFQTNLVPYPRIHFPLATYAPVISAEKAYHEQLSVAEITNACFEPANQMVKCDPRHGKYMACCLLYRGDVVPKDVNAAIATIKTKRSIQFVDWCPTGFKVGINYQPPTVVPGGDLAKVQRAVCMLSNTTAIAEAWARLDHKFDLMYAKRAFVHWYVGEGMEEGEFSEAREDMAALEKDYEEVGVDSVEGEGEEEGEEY

- EC50 [1]: 8.4 nM
- EC50 [2]: 7.9 nM
Substance: JM2 (juxtamembrane 2), Cx43 mimetic peptide (from UniProt P17302 231-245)

Source: article doi:10.1101/2024.01.26.576347
